PMC7183857

Target: CA_(E180A) and CA_(E187A)
Assay: co-sedimentation

MxB_(1–35)-MBPdi (from UniProt P20592 1-35)
binding as percent of WT CA tubes: 73 to 83 % of WT
